Measured values: PMC9700705, “A non-carboxylating pentose bisphosphate pathway in halophilic archaea” (Communications Biology, 2022)

Legend:
Hx-RbsK (ATP-R1PK) [1] = biological target: T1, Hx-RbsK (ATP-R1PK) (Halopiger xanaduensis, UniProt F8D4I6); assay: PK/LDH-coupled NDP quantification; HPLC of product R15P; assay type: biochemical; conditions: 20 mM MgCl2, 2 M KCl, pH 8.3-8.4, 47 °C
T1 construct: gene Halxa_1682; recombinant from E. coli Rosetta (DE3), codon-optimised synthetic gene in pET-21a(+) NdeI/BamHI, purified on anion exchange, hydroxyapatite and gel filtration

Hx-RbsK (ATP-R1PK) [2] = biological target: T1, Hx-RbsK (ATP-R1PK); assay: PK/LDH-coupled NDP quantification; assay type: biochemical; conditions: 25 mM R1P, 20 mM MgCl2, 0.8 M NaCl, 42 °C
[3] = biological target: T2, glycolaldehyde reductase (GaR, VNG_6270G) (Halobacterium salinarum, UniProt Q9HHR2); assay: NADH consumption at […] nm; assay type: biochemical; conditions: 0.2 mM NADH, 50 mM MES-NaOH pH 6.0, 3 M KCl, 40 °C; fit with substrate inhibition; substrate inhibition constant, second site
T2 construct: native protein purified from H. salinarum cell-free extract (hydroxyapatite, Superdex200), identified by LC-MS; plasmid-encoded; GenBank entry is the codon-optimised recombinant gene (Hs-GaR)
T2 sequence (Q9HHR2 1-365): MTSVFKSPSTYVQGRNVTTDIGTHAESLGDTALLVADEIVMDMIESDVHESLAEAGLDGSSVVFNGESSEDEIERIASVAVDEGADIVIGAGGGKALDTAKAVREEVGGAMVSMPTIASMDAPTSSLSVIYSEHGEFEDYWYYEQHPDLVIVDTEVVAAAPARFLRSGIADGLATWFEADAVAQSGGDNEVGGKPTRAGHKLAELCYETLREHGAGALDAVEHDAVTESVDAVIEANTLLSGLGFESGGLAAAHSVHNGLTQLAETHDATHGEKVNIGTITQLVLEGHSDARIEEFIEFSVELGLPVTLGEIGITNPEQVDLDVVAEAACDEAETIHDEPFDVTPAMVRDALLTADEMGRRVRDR

[4] = substrate: O=C(CO)COP(=O)(O)O; assay: HPLC of Ru1P formed (condensation direction); assay type: biochemical, Halopiger xanaduensis; conditions: 50 mM glycolaldehyde, 50 mM Tris-HCl pH 8.0, 2 M KCl, 1 mM ZnCl2, 47 °C
[5] = substrate: O=CCO; assay: HPLC of Ru1P formed (condensation direction); assay type: biochemical, Halopiger xanaduensis; conditions: 20 mM DHAP, 50 mM Tris-HCl pH 8.0, 2 M KCl, 1 mM ZnCl2, 47 °C
purified protein [6] = substrate: O=C(COP(=O)(O)O)[C@H](O)[C@H](O)COP(=O)(O)O; assay: purified protein; assay type: biochemical, Halopiger xanaduensis; conditions: 50 mM Tris-HCl pH 7.5, 2 M KCl, 5 mM MgCl2
purified protein [7] = substrate: O=CCO; assay: purified protein; assay type: biochemical, Halobacterium salinarum; conditions: 0.2 mM NADH, 50 mM MES-NaOH pH 6.0, 3 M KCl, 40 °C, fit with substrate inhibition
purified protein [8] = substrate: O=P(O)(O)O; assay: purified protein; conditions: 1 mM guanosine, 2 M KCl, 30 °C
purified protein [9] = substrate: Nc1nc2c(ncn2[C@@H]2O[C@H](CO)[C@@H](O)[C@H]2O)c(=O)[nH]1; assay: purified protein; assay type: biochemical, Halorubrum lacusprofundi; conditions: 50 mM sodium phosphate pH 7.5, 2 M KCl, 30 °C

T1 sequence (F8D4I6 whole entry): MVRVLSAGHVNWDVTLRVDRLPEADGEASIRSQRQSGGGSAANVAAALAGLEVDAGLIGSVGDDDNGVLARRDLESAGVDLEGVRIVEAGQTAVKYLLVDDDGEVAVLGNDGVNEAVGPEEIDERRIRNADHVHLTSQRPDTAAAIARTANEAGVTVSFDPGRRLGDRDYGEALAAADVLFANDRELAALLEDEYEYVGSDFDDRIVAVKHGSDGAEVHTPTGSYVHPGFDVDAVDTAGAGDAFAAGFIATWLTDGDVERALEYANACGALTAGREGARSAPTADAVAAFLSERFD

O=P(O)(O)O[C@H]1O[C@H](CO)[C@@H](O)[C@H]1O [R1P]
PK/LDH-coupled NDP quantification; HPLC of product R15P (Hx-RbsK (ATP-R1PK) [1]): HPLC analysis of the Hx-RbsK reaction product indicated that R15P was generated from R1P

Nc1ncnc2c1ncn2[C@@H]1O[C@H](COP(=O)(O)OP(=O)(O)OP(=O)(O)O)[C@@H](O)[C@H]1O [ATP]
PK/LDH-coupled NDP quantification (Hx-RbsK (ATP-R1PK) [2]): Using R1P as the phosphate acceptor, the enzyme preferred ATP among NTPs

O=CCO [glycolaldehyde]
Ks2 [3]: 35 ± 8 mM

B1: Hx-FucA (Ru1P aldolase) (Halopiger xanaduensis SH-6) (protein)
chain: MILETERRAVVEHASELADLTPGRTGNLSVRGSGDDTDAGPGDAFAITPTGVPYDGFDVEDVPVVGTDGERLDGEMAPSSEVPMHSAIYRREDVGAIVHTHSPWATALAVANQPLPPIHYMIVAVGKRVPVAEYAPYGTDELAENIVTAMTEAGSTASLIENHGLVVTAPDLETALENTHHVESLARLYLESRSAGLEPQTLTDDQLETVLEKFESYGQ
notes: recombinant from E. coli Rosetta (DE3), codon-optimised synthetic gene in pET-21a(+) NdeI/BamHI, purified on anion exchange, hydroxyapatite and gel filtration
Km [4]: 3.5 ± 0.3 mM
Km [5]: 3.4 ± 0.3 mM

B2: Hx-HAD hydrolase (RuBP phosphatase) (Halopiger xanaduensis SH-6) (protein)
chain: MATAVLFDLDNTLYPYPPCNQAGKAAALERAQELGYDFDHESFAEFYQAGRREVKRDTGGTAASHERYLYFKRALELHTGSPRPGDALALGDAYWSAYLEEMSLVPDAKETLEELQEQGVDIAITTNLTTTIQLAKLERLGLTDYVDLVLTSEETGQEKPASVMFTLPLARLDSRASEAVMVGDDLEADIAGANAVGLETVLFDPSEESDATESADRAATERQADHSIDTLGELTDLVS
notes: recombinant from E. coli Rosetta (DE3), codon-optimised synthetic gene in pET-21a(+) NdeI/BamHI, purified on hydroxyapatite and gel filtration
Km (purified protein [6]): 2.2 ± 0.5 mM

B3: glycolaldehyde reductase (GaR, VNG_6270G) (Halobacterium salinarum NRC-1) (protein)
chain: MTSVFKSPSTYVQGRNVTTDIGTHAESLGDTALLVADEIVMDMIESDVHESLAEAGLDGSSVVFNGESSEDEIERIASVAVDEGADIVIGAGGGKALDTAKAVREEVGGAMVSMPTIASMDAPTSSLSVIYSEHGEFEDYWYYEQHPDLVIVDTEVVAAAPARFLRSGIADGLATWFEADAVAQSGGDNEVGGKPTRAGHKLAELCYETLREHGAGALDAVEHDAVTESVDAVIEANTLLSGLGFESGGLAAAHSVHNGLTQLAETHDATHGEKVNIGTITQLVLEGHSDARIEEFIEFSVELGLPVTLGEIGITNPEQVDLDVVAEAACDEAETIHDEPFDVTPAMVRDALLTADEMGRRVRDR
notes: native protein purified from H. salinarum cell-free extract (hydroxyapatite, Superdex200), identified by LC-MS; plasmid-encoded; GenBank entry is the codon-optimised recombinant gene (Hs-GaR)
Km (purified protein [7]): 10 ± 2 mM

B4: Hl-Urdpase1 (guanosine phosphorylase) (Halorubrum lacusprofundi ATCC 49239) (protein)
chain: MAKQPHLLVEEGDVHEIAIIPGDPGRVDRIADLCDDSELVAQNREYKIVNASYDGTDLTICSTGIGCPSAAIAVEELSRVGVETFLRCGTCGALQADMEVGDMVVATGAAKEEGTSKRYESVEYPAVPDYDALTELVGAAEDNDEEIHVGPIVSDDAFYNESDEYVDDWNDANLLAIEMEAATVFALARRKGLRAGAICTVDGNLVAGNQKGADSDDELPEKAKDNVERAIRITLNAVTAL
notes: recombinant from E. coli BL21-CodonPlus(DE3)-RIL, codon-optimised synthetic gene in pET-21a(+) NdeI/BamHI, purified on hydroxyapatite and gel filtration
Km (purified protein [8]): 4.8 ± 0.8 mM
Km (purified protein [9]): 0.056 ± 0.01 mM
